Here are results for 9 molecules from article PMC3646915 (Journal of molecular biology, 2013).

Substitutions are numbered along the chain they refer to. Like-named read-outs stand apart in the source and are kept apart here.

By stoichiometry N is commonly meant the number of molecules, sites or subunits per partner or assembly.

T1: porcine mitochondrial malate dehydrogenase (porcine, UniProt P00346 25-338)
T1 sequence (looked up): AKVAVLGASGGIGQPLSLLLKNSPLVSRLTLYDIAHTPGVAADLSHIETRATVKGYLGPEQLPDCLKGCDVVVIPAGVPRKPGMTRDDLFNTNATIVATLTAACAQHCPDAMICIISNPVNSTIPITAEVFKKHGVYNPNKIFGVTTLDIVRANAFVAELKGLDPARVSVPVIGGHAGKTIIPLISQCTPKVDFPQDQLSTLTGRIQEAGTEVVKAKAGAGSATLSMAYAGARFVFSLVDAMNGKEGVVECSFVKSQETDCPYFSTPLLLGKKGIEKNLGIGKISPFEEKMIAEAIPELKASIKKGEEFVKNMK

B1: AtHsp18.5 tryptic fragment 48–153 (domain or fragment, Arabidopsis thaliana, UniProt O64564 48-153, looked up)
chain: EIFPQTSSSTVNTQLNWTETPTAHVFKAYLPGVDQDEVIAFVDEEGYLQICTGDNKFMSRFKLPNNALTDQVTAWMEDEFLVVFVEKDASSSPPQLPEIEENRNVR
B2: PsHsp18.1, cytosolic class I sHSP from Pisum sativum (natural protein, UniProt P19243 1-158, looked up)
chain: MSLIPSFFSGRRSNVFDPFSLDVWDPLKDFPFSNSSPSASFPRENPAFVSTRVDWKETPEAHVFKADLPGLKKEEVKVEVEDDRVLQISGERSVEKEDKNDEWHRVERSSGKFLRRFRLPENAKMDKVKASMENGVLTVTVPKEEIKKAEVKSIEISG
B3: AtHsp18.5 tryptic fragment 12–153 (domain or fragment, Arabidopsis thaliana, UniProt O64564 12-153, looked up)
chain: LSPGDRIWEPFELMNTFLDFPSPALFLSHHFPSLSREIFPQTSSSTVNTQLNWTETPTAHVFKAYLPGVDQDEVIAFVDEEGYLQICTGDNKFMSRFKLPNNALTDQVTAWMEDEFLVVFVEKDASSSPPQLPEIEENRNVR
B4: AtHsp18.5 tryptic fragment 11–153 (domain or fragment, Arabidopsis thaliana, UniProt O64564 11-153, looked up)
chain: RLSPGDRIWEPFELMNTFLDFPSPALFLSHHFPSLSREIFPQTSSSTVNTQLNWTETPTAHVFKAYLPGVDQDEVIAFVDEEGYLQICTGDNKFMSRFKLPNNALTDQVTAWMEDEFLVVFVEKDASSSPPQLPEIEENRNVR
B5: AtHsp18.5 truncation mutant 25–153 (domain or fragment, Arabidopsis thaliana, UniProt O64564 25-153, looked up)
chain: MNTFLDFPSPALFLSHHFPSLSREIFPQTSSSTVNTQLNWTETPTAHVFKAYLPGVDQDEVIAFVDEEGYLQICTGDNKFMSRFKLPNNALTDQVTAWMEDEFLVVFVEKDASSSPPQLPEIEENRNVR
B6: AtHsp18.5 with N-terminal Strep II tag (natural protein, Arabidopsis thaliana, UniProt O64564 1-162, looked up)
chain: MSMIPISNRRRLSPGDRIWEPFELMNTFLDFPSPALFLSHHFPSLSREIFPQTSSSTVNTQLNWTETPTAHVFKAYLPGVDQDEVIAFVDEEGYLQICTGDNKFMSRFKLPNNALTDQVTAWMEDEFLVVFVEKDASSSPPQLPEIEENRNVRVVEITGDDD
B7: AtHsp18.5 with Cys98 substituted by Ala (natural protein, Arabidopsis thaliana, UniProt O64564 1-162, looked up)
chain: B6 chain with C98A
B8: AtHsp18.5 with C-terminal Strep II tag (natural protein, Arabidopsis thaliana, UniProt O64564 1-162, looked up)
chain: B6 chain
B9: AtHsp18.5 tryptic fragment 11–150 (domain or fragment, Arabidopsis thaliana, UniProt O64564 11-150, looked up)
chain: RLSPGDRIWEPFELMNTFLDFPSPALFLSHHFPSLSREIFPQTSSSTVNTQLNWTETPTAHVFKAYLPGVDQDEVIAFVDEEGYLQICTGDNKFMSRFKLPNNALTDQVTAWMEDEFLVVFVEKDASSSPPQLPEIEENR

The target of data set [1] is B9. In words: native MS.
Data set [2] has as its target B4. Nature of the data set: native MS.
Data set [3] has as its target B3. Nature of the data set: native MS.
The target in data set [4] is T1, porcine mitochondrial malate …. In words: SEC. On the technique in general: SEC sorts molecules by how far they enter the pores of the column.
The target in a further data set is firefly luciferase (firefly, UniProt P08659 1-550 = luciferase). In words: SEC.
Sequence of firefly luciferase (P08659 whole entry): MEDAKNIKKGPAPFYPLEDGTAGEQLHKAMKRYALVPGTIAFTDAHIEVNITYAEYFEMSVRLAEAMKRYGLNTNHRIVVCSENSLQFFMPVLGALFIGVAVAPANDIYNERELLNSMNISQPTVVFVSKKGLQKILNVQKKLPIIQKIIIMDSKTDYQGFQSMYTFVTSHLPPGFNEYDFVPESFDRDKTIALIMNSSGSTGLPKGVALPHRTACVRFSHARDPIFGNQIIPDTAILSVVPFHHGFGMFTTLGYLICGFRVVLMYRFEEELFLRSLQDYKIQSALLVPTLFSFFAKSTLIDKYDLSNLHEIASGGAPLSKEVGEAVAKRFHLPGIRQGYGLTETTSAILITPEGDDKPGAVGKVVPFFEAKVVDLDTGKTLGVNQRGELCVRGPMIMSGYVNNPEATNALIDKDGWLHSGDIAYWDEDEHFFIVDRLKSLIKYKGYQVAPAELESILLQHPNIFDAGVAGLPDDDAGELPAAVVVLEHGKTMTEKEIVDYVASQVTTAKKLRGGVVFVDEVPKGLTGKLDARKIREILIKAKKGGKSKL
Data set [5] deals with the molecule itself. In words: native MS.
Data set [6] concerns the molecule itself. In words: native MS. The source holds these as a separate data set.
The data set “native gel or EMSA” concerns the molecule itself. In words: native gel or EMSA. A general note: Mobility shift assays separate free from complexed probe on a gel.
Data set [7] concerns the molecule itself. Nature of the data set: native gel or EMSA + cross-linking + native MS + AUC.

B1: the binding result in data set [1], in data set [2] and in [3] was “binds” throughout. B2: the binding result (in data set [4]; with firefly luciferase) was “binds” in each case. Turning to B3, the binding result in “native MS [5]” is “binds”. Consider B4, for which, in “native MS [5]”, the binding result is recorded as “binds”. Regarding B5, the binding result in “native MS [6]” is reported as “binds”. Regarding B6, the “stoichiometry N” value in “native gel or EMSA” was 2. As for B7, the “stoichiometry N” value in data set [7] was found to be 2. Consider B8, for which the “stoichiometry N” value in “native gel or EMSA” is 2. B9: in “native MS [5]”, the binding result is given as “binds”.
